B1: KIR2DS3 (receptor, human, UniProt Q14952 22-304, looked up)
chain: HEGFRRKPSLLAHPGRLVKSEETVILQCWSDVMFEHFLLHREGTFNDTLRLIGEHIDGVSKANFSIGRMRQDLAGTYRCYGSVPHSPYQFSAPSDPLDIVITGLYEKPSLSAQPGPTVLAGESVTLSCSSWSSYDMYHLSTEGEAHERRFSAGPKVNGTFQADFPLGPATQGGTYRCFGSFHDSPYEWSKSSDPLLVSVTGNPSNSWPSPTEPSSKTGNPRHLHVLIGTSVVKLPFTILLFFLLHRWCSDKKNASVMDQGPAGNRTVNREDSDEQDHQEVSYA
notes: whole, on cells
B2: KIR2DS2 (receptor, human, UniProt P43631 22-304, looked up)
chain: HEGVHRKPSLLAHPGPLVKSEETVILQCWSDVRFEHFLLHREGKYKDTLHLIGEHHDGVSKANFSIGPMMQDLAGTYRCYGSVTHSPYQLSAPSDPLDIVITGLYEKPSLSAQPGPTVLAGESVTLSCSSRSSYDMYHLSREGEAHERRFSAGPKVNGTFQADFPLGPATHGGTYRCFGSFRDSPYEWSNSSDPLLVSVTGNPSNSWPSPTEPSSKTGNPRHLHVLIGTSVVKIPFTILLFFLLHRWCSNKKNAAVMDQEPAGNRTVNSEDSDEQDHQEVSYA
notes: whole, on cells

Target: T1, human HHLA2-mIgG2a fusion protein (human; mouse, UniProt Q9UM44 23-344, limits assumed)
T1 construct: also called hHHLA2-mIgG2a; HHLA2-Fc
T1 sequence: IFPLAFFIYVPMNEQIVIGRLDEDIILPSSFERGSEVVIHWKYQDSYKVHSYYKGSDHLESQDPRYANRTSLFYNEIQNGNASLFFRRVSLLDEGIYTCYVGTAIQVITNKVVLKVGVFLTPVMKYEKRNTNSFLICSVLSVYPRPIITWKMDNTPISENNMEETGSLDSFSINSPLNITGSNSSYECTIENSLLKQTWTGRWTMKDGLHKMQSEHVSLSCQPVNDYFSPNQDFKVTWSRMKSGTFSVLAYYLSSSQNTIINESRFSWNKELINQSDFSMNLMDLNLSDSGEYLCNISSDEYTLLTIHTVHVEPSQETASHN
Assay: cell microarray, HHLA2-mIgG2a on fixed transfected HEK293 cells, AF647 anti-mouse IgG detection
Protocol: Human HHLA2-mIgG2a fusion protein was added to slides of fixed, transfected HEK293 cell slides at a 20 ug/ml concentration, and the protein was detected with an AF647 labeled anti-mouse IgG detection antibody. Two replicate slides were screened for each of the 13 slide sets. Fluorescent images were analyzed and quantitated (for transfection efficiency) using ImageQuant software (GE). A protein ‘hit’ was defined as duplicate spots showing a raised signal compared to background levels. This was achieved by visual inspection using the images gridded on the ImageQuant software.
Addition of the AF647 labeled anti-mouse IgG detection antibody alone in the absence of HHLA2-mIgG2a produced no signal. The selectivity of HHLA2 binding to KIR3DL3 was evaluated using a panel of 14 KIR receptors arrayed on slides.

Binder | binding result
B1 | no binding (tested: 20 ug/ml)
B2 | no binding (tested: 20 ug/ml)

Reference: patent US20210115144A1 (Dana-Farber, published 2021)
